Reference: patent US20090068736A1 (TRUSTEES OF DARTMOUTH COLLEGE, published 2009)

Biological target: Mammalian (Human) 20S Proteasome (Mammalian (Human))
Assay: cell-based or functional assay

Binder	I50 (µM), inhibition of chymotrypsin-like (ChT-L) peptidase activity of 20S proteasome, N-succinyl-LLVY-AMC substrate
RRRPRPPELPR [E8]	2.37 µM
RRRPRPAYLPR [A7]	0.851 µM
RRRPRPPALPRW [A8W12]	0.715 µM
RRAPRPPYLPR [A3]	3.15 µM
RARPRPPYLPR [A2]	2.77 µM
RRKPRPPYLPR [K3]	0.819 µM
ARRPRPPYLPR [A1]	2.81 µM
ARRPRPPELPR [A1E8]	49.4 µM
RRRPAPPYLPR [A5]	2.65 µM
KRRRPPYLPR [K1]	0.595 µM
RRRPRAPYLPR [A6]	1.22 µM
KRRPRPPELPR [K1E8]	6.34 µM
RRRPRPPELPRW [E8W12]	2.62 µM
RRRPRPPFLPRW [F8W12]	0.034 µM
RRRARPPYLPR [A4]	4.99 µM
RRRPRPPYGPR [G9]	0.137 µM
RKRPRPPYLPR [K2]	0.543 µM

Second part, the binder after the results:

I50 (µM), inhibition of chymotrypsin-like (ChT-L) peptidase activity of 20S proteasome, N-succinyl-LLVY-AMC substrate	Binder
0.004 µM	RRRPRPPYLPRPRPPPFFPPRLPPRIPPGFPPRFPPRFP [PR39]
20.1 µM	RAAPRPPYLPR [RAA]
0.805 µM	RRRPRPPYLPR [PR11]
14.5 µM	AARPRPPYLPR [AAR]
0.782 µM	RRRPRPPYLAR [A10]
0.006 µM	RRRPRPPYLPRW [W12]
0.685 µM	RRRPRPPYLPA [A11]
11.3 µM	ARAPRPPYLPR [ARA]
> 100 µM	AAAPRPPYLPR [AAA-PR11]
2.71 µM	KKKPRPPYLPR [KKK]
